Molecular target: the molecule itself
Assay: native gel or EMSA; increasing amounts of purified protein (0-200 pmol) incubated with 2 pmol in vitro transcribed 3'UTR fragments of C/EBPβ mRNA; 25 mM Tris, 150 mM NaCl, 2.5 mM MgCl2, 2.5 mM DTT, 0.5 mM EDTA, 0.025 mM ZnCl2, pH 8.3; on ice 20 min; 0.8% agarose gel in TAE; oligomers read from heavier protein-RNA complexes

B1: Full length human MCPIP1 (D141N) recombinant protein (enzyme, UniProt Q5D1E8 1-599, looked up)
chain: MSGPCGEKPVLEASPTMSLWEFEDSHSRQGTPRPGQELAAEEASALELQMKVDFFRKLGYSSTEIHSVLQKLGVQADTNTVLGELVKHGTATERERQTSPDPCPQLPLVPRGGGTPKAPNLEPPLPEEEKEGSDLRPVVINGSNVAMSHGNKEVFSCRGILLAVNWFLERGHTDITVFVPSWRKEQPRPDVPITDQHILRELEKKKILVFTPSRRVGGKRVVCYDDRFIVKLAYESDGIVVSNDTYRDLQGERQEWKRFIEERLLMYSFVNDKFMPPDDPLGRHGPSLDNFLRKKPLTLEHRKQPCPYGRKCTYGIKCRFFHPERPSCPQRSVADELRANALLSPPRAPSKDKNGRRPSPSSQSSSLLTESEQCSLDGKKLGAQASPGSRQEGLTQTYAPSGRSLAPSGGSGSSFGPTDWLPQTLDSLPYVSQDCLDSGIGSLESQMSELWGVRGGGPGEPGPPRAPYTGYSPYGSELPATAAFSAFGRAMGAGHFSVPADYPPAPPAFPPREYWSEPYPLPPPTSVLQEPPVQSPGAGRSPWGRAGSLAKEQASVYTKLCGVFPPHLVEAVMGRFPQLLDPQQLAAEILSYKSQHPSE
notes: Monocyte chemoattractant protein-1-induced protein 1 (MCPIP1, Regnase-1), human, full length; point mutation D141N in the PIN domain abolishes RNase activity; also called Regnase-1 D141N; source: recombinant, purified
Does B1 bind?
Result: binds
